Here are results for nine molecules from patent publication US20230056252A1 (Gilead, published 2023).

Bounds are passed on as bounds.

Sequences and labels used below:
B1: huSP34.10.5 Fab-HF (Fab, V domains shown)
VH: EVQLVESGGGLVQPGGSLRLSCAASGFTFSDYAMNWVRQAPGKGLEWVGRTRSKYNSYATYYAASVKGRFTISRDDSKNSLYLQMNSLKTEDTAVYYCVRHGNFGHSYVSWFAVWGQGTLVTVSS
VL: QAVVTQEPSLTVSPGGTVTLTCGSSTGAVTTGHYANWVQQKPGQAPRGLIGGTSNRAPWTPARFSGSLLGGKAALTLSGAQPEDEAEYYCALWYSARWVFGGGTKLTVL
B2: huSP34.9.6 Fab-HF (Fab, V domains shown)
VH: EVQLVESGGGLVQPGGSLRLSCAASGFTFSDYAMNWVRQAPGKGLEWVGRTRSKYNSYATYYAASVKGRFTISRDDSKNSLYLQMNSLKTEDTAVYYCVRHGNFGNSYVSWFAVWGQGTLVTVSS
VL: QAVVTQPPSLTVSPGGTVTLTCGSSTGAVTTGHYANWVQQKPGQAPRGLIGGTSNRAPGVPARFSGSLSGGKAALTISGAQPEDEAEYYCALWYSARWVFGGGTKLTVL
B3: huSP34.10.6 Fab-HF (Fab, V domains shown)
VH: EVQLVESGGGLVQPGGSLRLSCAASGFTFSDYAMNWVRQAPGKGLEWVGRTRSKYNSYATYYAASVKGRFTISRDDSKNSLYLQMNSLKTEDTAVYYCVRHGNFGHSYVSWFAVWGQGTLVTVSS
VL: QAVVTQPPSLTVSPGGTVTLTCGSSTGAVTTGHYANWVQQKPGQAPRGLIGGTSNRAPGVPARFSGSLSGGKAALTISGAQPEDEAEYYCALWYSARWVFGGGTKLTVL
B4: huSP34.6.6 Fab-HF (Fab, V domains shown)
VH: EVQLVESGGGLVQPGGSLRLSCAASGFTFSTYAMNWVRQAPGKGLEWVGRIRSKYNNYATYYADSVKGRFTISRDNSKNTLYLQMNSLRAEDTAMYYCVRHGNFGNSYVSWFAVWGQGTLVTVSS
VL: QAVVTQPPSLTVSPGGTVTLTCGSSTGAVTTGHYANWVQQKPGQAPRGLIGGTSNRAPGVPARFSGSLSGGKAALTISGAQPEDEAEYYCALWYSARWVFGGGTKLTVL
B5: huSP34.7.6 Fab-HF (Fab, V domains shown)
VH: EVQLVESGGGLVQPGGSLRLSCAASGFTFSDYAMNWVRQAPGKGLEWVGRTRSKYNNYATYYAASVKGRFTISRDDSKNSLYLQMNSLKTEDTAVYYCVRHGNFGNSYVSWFAVWGQGTLVTVSS
VL: QAVVTQPPSLTVSPGGTVTLTCGSSTGAVTTGHYANWVQQKPGQAPRGLIGGTSNRAPGVPARFSGSLSGGKAALTISGAQPEDEAEYYCALWYSARWVFGGGTKLTVL
B6: hPGT121.66 AAS + W/huSP34.40.13 scFv AAS + SAV + R (bispecific antibody, human IgG1, lambda, L234A L235A)
chain: EVQLVESGGGLVQPGGSLRLSCAASGFTFNTYAMNWVRQAPGKGLEWVGRIRSKYNNYAAYYADSVKSRFTISRDDSKNSLYLQMNSLRTEDTAVYYCVRHGNFGHSYVSWFAYWGQGTLVTVSSGGGGSGGGGSGGGGSGGGGSQAVVTQEPSLTVSPGGTVTLTCGSSTGAVTTGHYANWVQQKPGQAPRGLIGGTSNRAPGVPARFSGSLLGGKAALTISGAQPEDEAEYYCALWYSNRWVFGGGTKLTVLEPKSSDKTHTCPPCPAPEAAGGPSVFLFPPKPKDTLMISRTPEVTCVVVDVSHEDPEVKFNWYVDGVEVHNAKTKPREEQYNSTYRVVSVLTVLHQDWLNGKEYKCKVSNKALPASIEKTISKAKGQPREPQVYTLPPSREEMTKNQVSLSCAVKGFYPSDIAVEWESNGQPENNYKTTPPVLDSDGSFFLVSKLTVDKSRWQQGNVFSCSVMHEALHNRYTQKSLSLSPGK
heavy: QMQLQESGPGLVKPSETLSLTCSVSGASISDSYWSWIRRSPGKGLEWIGYVHKSGDTNYNPSLKSRVHLSLDTSKNQVSLSLTGVTAADSGKYYCARTLHGRRIYGIVAFNEWFTYFYMDVWGTGTQVTVSSASTKGPSVFPLAPSSKSTSGGTAALGCLVKDYFPEPVTVSWNSGALTSGVHTFPAVLQSSGLYSLSSVVTVPSSSLGTQTYICNVNHKPSNTKVDKKVEPKSCDKTHTCPPCPAPEAAGGPSVFLFPPKPKDTLMISRTPEVTCVVVDVSHEDPEVKFNWYVDGVEVHNAKTKPREEQYNSTYRVVSVLTVLHQDWLNGKEYKCKVSNKALPASIEKTISKAKGQPREPQVYTLPPSREEMTKNQVSLWCLVKGFYPSDIAVEWESNGQPENNYKTTPPVLDSDGSFFLYSKLTVDKSRWQQGNVFSCSVMHEALHNHYTQKSLSLSPGK
light: not shown
notes: also called 276; bispecific 276
B7: h3BNC117.52.64 AAS + SAV + YTE/huSP34.3.13 scFv AAS + W + YTE (bispecific antibody, human IgG1, kappa, L234A L235A)
chain: EVQLVESGGGLVQPGGSLRLSCAASGFTFNTYAMNWVRQAPGKGLEWVGRIRSKYNNYATYYADSVKGRFTISRDDSKNSLYLQMNSLRTEDTAVYYCVRHGNFGHSYVSWFAYWGQGTLVTVSSGGGGSGGGGSGGGGSGGGGSQAVVTQEPSLTVSPGGTVTLTCGSSTGAVTTGHYANWVQQKPGQAPRGLIGGTSNRAPGVPARFSGSLLGGKAALTISGAQPEDEAEYYCALWYSNRWVFGGGTKLTVLEPKSSDKTHTCPPCPAPEAAGGPSVFLFPPKPKDTLYITREPEVTCVVVDVSHEDPEVKFNWYVDGVEVHNAKTKPREEQYNSTYRVVSVLTVLHQDWLNGKEYKCKVSNKALPASIEKTISKAKGQPREPQVYTLPPSREEMTKNQVSLWCLVKGFYPSDIAVEWESNGQPENNYKTTPPVLDSDGSFFLYSKLTVDKSRWQQGNVFSCSVMHEALHNHYTQKSLSLSPGK
heavy: QVQLLQSGAAVTKPGASVRVSCEASGYNIRDYFIHWWRQAPGQGLQWVGWINPKTGQPNNPRQFQGRVSLTRHASFDFDTFSFYMDLKALRSDDTAVYFCARQRSDYWDFDVWGSGTQVTVSSASTKGPSVFPLAPSSKSTSGGTAALGCLVKDYFPEPVTVSWNSGALTSGVHTFPAVLQSSGLYSLSSVVTVPSSSLGTQTYICNVNHKPSNTKVDKKVEPKSCDKTHTCPPCPAPEAAGGPSVFLFPPKPKDTLYITREPEVTCVVVDVSHEDPEVKFNWYVDGVEVHNAKTKPREEQYNSTYRVVSVLTVLHQDWLNGKEYKCKVSNKALPASIEKTISKAKGQPREPQVYTLPPSREEMTKNQVSLSCAVKGFYPSDIAVEWESNGQPENNYKTTPPVLDSDGSFFLVSKLTVDKSRWQQGNVFSCSVMHEALHNHYTQKSLSLSPGK
light: DIQMTQSPSSLSASVGDTATITCQANGYLNWYQQRRGKAPKLLIYDGSKLERGVPSRFSGRRWGQEYNLTINNLQPEDIATYFCQVYEFVVPGTRLDLKRTVAAPSVFIFPPSDEQLKSGTASVVCLLNNFYPREAKVQWKVDNALQSGNSQESVTEQDSKDSTYSLSSTLTLSKADYEKHKVYACEVTHQGLSSPVTKSFNRGEC
B8: hPGT121.66 AAS + W/huSP34.41.13 scFv AAS + SAV + R (bispecific antibody, human IgG1, lambda, L234A L235A)
chain: EVQLVESGGGLVQPGGSLSLSCAASGFTFNTYAMNWVRQAPGKGLEWVGRIRSKYNNYATYYADSVKSRFTISRDDSKNSLYLQMNSLRTEDTAVYYCVRHGNFGHSYVSWFAYWGQGTLVTVSSGGGGSGGGGSGGGGSGGGGSQAVVTQEPSLTVSPGGTVTLTCGSSTGAVTTGHYANWVQQKPGQAPRGLIGGTSNRAPGVPARFSGSLLGGKAALTISGAQPEDEAEYYCALWYSNRWVFGGGTKLTVLEPKSSDKTHTCPPCPAPEAAGGPSVFLFPPKPKDTLMISRTPEVTCVVVDVSHEDPEVKFNWYVDGVEVHNAKTKPREEQYNSTYRVVSVLTVLHQDWLNGKEYKCKVSNKALPASIEKTISKAKGQPREPQVYTLPPSREEMTKNQVSLSCAVKGFYPSDIAVEWESNGQPENNYKTTPPVLDSDGSFFLVSKLTVDKSRWQQGNVFSCSVMHEALHNRYTQKSLSLSPGK
heavy: QMQLQESGPGLVKPSETLSLTCSVSGASISDSYWSWIRRSPGKGLEWIGYVHKSGDTNYNPSLKSRVHLSLDTSKNQVSLSLTGVTAADSGKYYCARTLHGRRIYGIVAFNEWFTYFYMDVWGTGTQVTVSSASTKGPSVFPLAPSSKSTSGGTAALGCLVKDYFPEPVTVSWNSGALTSGVHTFPAVLQSSGLYSLSSVVTVPSSSLGTQTYICNVNHKPSNTKVDKKVEPKSCDKTHTCPPCPAPEAAGGPSVFLFPPKPKDTLMISRTPEVTCVVVDVSHEDPEVKFNWYVDGVEVHNAKTKPREEQYNSTYRVVSVLTVLHQDWLNGKEYKCKVSNKALPASIEKTISKAKGQPREPQVYTLPPSREEMTKNQVSLWCLVKGFYPSDIAVEWESNGQPENNYKTTPPVLDSDGSFFLYSKLTVDKSRWQQGNVFSCSVMHEALHNHYTQKSLSLSPGK
light: not shown
B9: hPGT121.66 AAS W/huSP34.39.13 scFv AAS + SAV + R (bispecific antibody, human IgG1, lambda, L234A L235A)
chain: EVQLVESGGGLVQPGGSLRLSCAASGFTFNTYAMNWVRQAPGKGLEWVGRIRSKYNNYATYYADSVKSRFTISRDDSKNSLYLEMNSLRTEDTAVYYCVRHGNFGHSYVSWFAYWGQGTLVTVSSGGGGSGGGGSGGGGSGGGGSQAVVTQEPSLTVSPGGTVTLTCGSSTGAVTTGHYANWVQQKPGQAPRGLIGGTSNRAPGVPARFSGSLLGGKAALTISGAQPEDEAEYYCALWYSNRWVFGGGTKLTVLEPKSSDKTHTCPPCPAPEAAGGPSVFLFPPKPKDTLMISRTPEVTCVVVDVSHEDPEVKFNWYVDGVEVHNAKTKPREEQYNSTYRVVSVLTVLHQDWLNGKEYKCKVSNKALPASIEKTISKAKGQPREPQVYTLPPSREEMTKNQVSLSCAVKGFYPSDIAVEWESNGQPENNYKTTPPVLDSDGSFFLVSKLTVDKSRWQQGNVFSCSVMHEALHNRYTQKSLSLSPGK
heavy: QMQLQESGPGLVKPSETLSLTCSVSGASISDSYWSWIRRSPGKGLEWIGYVHKSGDTNYNPSLKSRVHLSLDTSKNQVSLSLTGVTAADSGKYYCARTLHGRRIYGIVAFNEWFTYFYMDVWGTGTQVTVSSASTKGPSVFPLAPSSKSTSGGTAALGCLVKDYFPEPVTVSWNSGALTSGVHTFPAVLQSSGLYSLSSVVTVPSSSLGTQTYICNVNHKPSNTKVDKKVEPKSCDKTHTCPPCPAPEAAGGPSVFLFPPKPKDTLMISRTPEVTCVVVDVSHEDPEVKFNWYVDGVEVHNAKTKPREEQYNSTYRVVSVLTVLHQDWLNGKEYKCKVSNKALPASIEKTISKAKGQPREPQVYTLPPSREEMTKNQVSLWCLVKGFYPSDIAVEWESNGQPENNYKTTPPVLDSDGSFFLYSKLTVDKSRWQQGNVFSCSVMHEALHNHYTQKSLSLSPGK
light: not shown

In one assay the target is T1, CD3 expressed on cell-surface of primary human T cells (human, UniProt P07766 23-207; P04234 22-171).
T1 construct: also called cell-surface CD3; human CD3
The experiment in a line: flow cytometry competition vs murine SP34-AF488 on human T cells, n = 1.
By IC50 is commonly meant the concentration that inhibits the measured activity by half. A low value points to higher potency. As for B1, the IC50 was above 20 µg/mL. Regarding B2, the half-maximal inhibitory concentration (IC50) is above 20 µg/mL. In turn, B3 came in with an IC50 above 20 µg/mL. B4 displayed an IC50 above 20 µg/mL. On the same count and under the same terms, the same measure for B5: above 20 µg/mL.

A further assay has as its target T2, biotinylated Human CD3E and CD3D (Acro Biosystems Cat CDD-H82W1) (human, UniProt P07766 23-126; P04234 22-105).
T2 construct: also called biotinylated CD3
Kind of assay: SPR (Biacore 4000), CD3 captured on streptavidin chip.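 Further: bispecific antibodies or Fabs injected at several concentrations over CD3 surfaces of varying density, sensorgrams fitted with a simple kinetic model to obtain association, dissociation and equilibrium constants.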
For orientation: Kd means the equilibrium constant for the complex coming apart. Low readings indicate higher affinity, high ones lower affinity. In general, koff refers to the first-order rate constant of dissociation. Read a high koff as fast dissociation. A word on the kon: it is the rate constant with which the complex forms. Low values mean slower complex formation, high ones faster complex formation. B6 registered a Kd of 1.8 nM, a dissociation rate constant (koff) of 0.0063 s⁻¹ and a kon of 3.6e+06 M⁻¹ s⁻¹.

In the case of B7, the Kd turned out to be 2.7 nM, the koff is 0.0087 s⁻¹ and the kon came out at 3.3e+06 M⁻¹ s⁻¹. B8 showed a Kd of 2.8 nM, a koff of 0.0085 s⁻¹ and a kon of 3e+06 M⁻¹ s⁻¹. The molecule B9 had a Kd of 2.6 nM, a koff of 0.009 s⁻¹ and a kon of 3.4e+06 M⁻¹ s⁻¹.
